Reference: paper PMC9482650, “Quantitative fragmentomics allow affinity mapping of interactomes” (Nature Communications, 2022)

Legend:
Test in all cases: holdup assay
Parameters in all cases: key: below the threshold = too weak to quantify, mostly under pKd 3.1 to 4
ARHGEF11, O15085 = molecular target: T1, ARHGEF11, O15085
T1 sequence (O15085 42-136, limits assumed, looked up): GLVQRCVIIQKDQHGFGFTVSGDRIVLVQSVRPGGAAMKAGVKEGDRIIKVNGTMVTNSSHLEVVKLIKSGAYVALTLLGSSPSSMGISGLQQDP

CASK, O14936 = molecular target: CASK, O14936
DFNB31_1, Q9P202 = molecular target: T2, DFNB31_1, Q9P202
T2 sequence (Q9P202 135-233, limits assumed, looked up): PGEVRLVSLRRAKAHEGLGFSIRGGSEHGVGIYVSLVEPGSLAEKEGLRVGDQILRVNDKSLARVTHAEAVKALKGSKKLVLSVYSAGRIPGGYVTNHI

DFNB31_2, Q9P202 = molecular target: T3, DFNB31_2, Q9P202
T3 sequence (Q9P202 274-371, limits assumed, looked up): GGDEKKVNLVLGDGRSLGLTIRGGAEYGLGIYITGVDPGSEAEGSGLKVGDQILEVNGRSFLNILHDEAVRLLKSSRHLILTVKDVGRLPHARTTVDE

DLG1_2, Q12959 = molecular target: DLG1_2, Q12959
DLG5_1, Q8TDM6 = molecular target: DLG5_1, Q8TDM6
FRMPD2_1, Q68DX3 = molecular target: FRMPD2_1, Q68DX3
FRMPD3, Q5JV73 = molecular target: FRMPD3, Q5JV73
GIPC2, Q8TF65 = molecular target: GIPC2, Q8TF65
GRIP1_3, Q9Y3R0 = molecular target: T4, GRIP1_3, Q9Y3R0
T4 sequence (Q9Y3R0 247-346, limits assumed, looked up): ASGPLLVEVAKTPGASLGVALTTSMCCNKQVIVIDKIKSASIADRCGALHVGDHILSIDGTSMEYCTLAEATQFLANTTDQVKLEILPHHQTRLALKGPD

GRIP2_7, Q9C0E4 = molecular target: GRIP2_7, Q9C0E4
Inadl_5, Q8NI35 = molecular target: Inadl_5, Q8NI35
LIN7C, Q9NUP9 = molecular target: T5, LIN7C, Q9NUP9
T5 sequence (Q9NUP9 88-185, limits assumed, looked up): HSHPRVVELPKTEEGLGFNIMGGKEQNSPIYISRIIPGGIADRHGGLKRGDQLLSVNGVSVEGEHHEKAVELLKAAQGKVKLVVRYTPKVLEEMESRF

LNX2_3, Q8N448 = molecular target: T6, LNX2_3, Q8N448
T6 sequence (Q8N448 463-564, limits assumed, looked up): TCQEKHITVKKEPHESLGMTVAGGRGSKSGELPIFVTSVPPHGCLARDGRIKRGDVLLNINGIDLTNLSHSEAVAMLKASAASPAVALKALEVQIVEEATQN

MAGI1_2, Q96QZ7 = molecular target: MAGI1_2, Q96QZ7
MAGI2_2, Q86UL8 = molecular target: MAGI2_2, Q86UL8
MAGI2_4, Q86UL8 = molecular target: MAGI2_4, Q86UL8
MAST1, Q9Y2H9 = molecular target: MAST1, Q9Y2H9
MPP2, Q14168 = molecular target: T7, MPP2, Q14168
T7 sequence (Q14168 180-250, limits assumed, looked up): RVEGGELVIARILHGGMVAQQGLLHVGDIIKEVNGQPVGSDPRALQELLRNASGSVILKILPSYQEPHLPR

PARD3B_1, Q8TEW8 = molecular target: T8, PARD3B_1, Q8TEW8
T8 sequence (Q8TEW8 196-299, limits assumed, looked up): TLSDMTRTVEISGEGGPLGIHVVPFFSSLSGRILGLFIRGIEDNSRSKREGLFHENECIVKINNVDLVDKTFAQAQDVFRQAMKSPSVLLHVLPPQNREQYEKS

RADIL, Q96JH8 = molecular target: T9, RADIL, Q96JH8
T9 sequence (Q96JH8 971-1071, limits assumed, looked up): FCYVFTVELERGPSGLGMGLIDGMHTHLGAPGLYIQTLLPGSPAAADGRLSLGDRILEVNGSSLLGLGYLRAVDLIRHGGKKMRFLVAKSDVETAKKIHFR

SIPA1L2, Q9P2F8 = molecular target: T10, SIPA1L2, Q9P2F8
T10 sequence (Q9P2F8 945-1036, limits assumed, looked up): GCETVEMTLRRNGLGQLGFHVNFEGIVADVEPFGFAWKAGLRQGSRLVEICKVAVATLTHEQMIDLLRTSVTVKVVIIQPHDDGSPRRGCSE

SNTG2, Q9NY99 = molecular target: T11, SNTG2, Q9NY99
T11 sequence (Q9NY99 68-166, limits assumed, looked up): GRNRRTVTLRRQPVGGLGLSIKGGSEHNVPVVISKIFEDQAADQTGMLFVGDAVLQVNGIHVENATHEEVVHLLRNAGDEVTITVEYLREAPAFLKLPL

TJP1_2, Q07157 = molecular target: TJP1_2, Q07157
TJP2_1, Q9UDY2 = molecular target: TJP2_1, Q9UDY2
TJP3_3, O95049 = molecular target: T12, TJP3_3, O95049
T12 sequence (O95049 375-456, limits assumed, looked up): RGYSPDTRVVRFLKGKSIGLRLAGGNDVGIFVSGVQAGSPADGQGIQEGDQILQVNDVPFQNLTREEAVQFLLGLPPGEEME

[1] = plain residues with an end cap or a label only (N-terminal biotin on a linker: ado-ado)
[2] = plain residues with an end cap or a label only (N-terminal biotin on a linker: ahx)

Measured: pKd

Chain of MAST1, Q9Y2H9 (Q9Y2H9 962-1065): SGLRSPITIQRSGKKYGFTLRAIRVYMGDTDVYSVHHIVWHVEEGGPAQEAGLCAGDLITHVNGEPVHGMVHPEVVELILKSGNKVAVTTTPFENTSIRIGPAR
Chain of TJP2_1, Q9UDY2 (Q9UDY2 24-128): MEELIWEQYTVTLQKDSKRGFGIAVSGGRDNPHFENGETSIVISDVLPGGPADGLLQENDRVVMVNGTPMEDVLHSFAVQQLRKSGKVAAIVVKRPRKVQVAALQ
Chain of GRIP2_7, Q9C0E4 (Q9C0E4 934-1023): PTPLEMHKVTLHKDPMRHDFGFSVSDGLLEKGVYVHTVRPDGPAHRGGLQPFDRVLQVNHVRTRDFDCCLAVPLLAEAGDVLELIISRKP
Chain of Inadl_5, Q8NI35 (Q8NI35 673-780): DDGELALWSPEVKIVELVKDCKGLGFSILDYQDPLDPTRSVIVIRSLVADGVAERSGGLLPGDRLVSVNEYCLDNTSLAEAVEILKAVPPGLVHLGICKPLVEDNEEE
Chain of MAGI2_4, Q86UL8 (Q86UL8 772-865): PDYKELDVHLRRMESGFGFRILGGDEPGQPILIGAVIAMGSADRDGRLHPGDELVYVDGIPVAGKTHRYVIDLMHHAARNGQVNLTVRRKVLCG
Chain of TJP1_2, Q07157 (Q07157 181-274): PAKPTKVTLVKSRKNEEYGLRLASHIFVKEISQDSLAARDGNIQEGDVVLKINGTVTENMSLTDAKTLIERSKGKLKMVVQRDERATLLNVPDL
Chain of FRMPD2_1, Q68DX3 (Q68DX3 770-861): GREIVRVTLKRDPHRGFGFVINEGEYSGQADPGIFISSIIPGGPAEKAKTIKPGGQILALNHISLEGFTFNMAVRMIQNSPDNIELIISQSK
Chain of MAGI1_2, Q96QZ7 (Q96QZ7 456-580): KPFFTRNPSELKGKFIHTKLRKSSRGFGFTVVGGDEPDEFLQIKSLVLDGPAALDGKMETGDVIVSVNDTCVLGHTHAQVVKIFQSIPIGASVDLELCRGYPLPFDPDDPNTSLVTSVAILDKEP
Chain of GIPC2, Q8TF65 (Q8TF65 112-203): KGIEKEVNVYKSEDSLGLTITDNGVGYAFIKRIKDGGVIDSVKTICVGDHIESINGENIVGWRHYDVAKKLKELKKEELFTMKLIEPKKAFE
Chain of CASK, O14936 (O14936 487-570): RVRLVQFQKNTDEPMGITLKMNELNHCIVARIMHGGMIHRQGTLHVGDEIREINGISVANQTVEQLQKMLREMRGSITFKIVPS
Chain of FRMPD3, Q5JV73 (Q5JV73 12-100): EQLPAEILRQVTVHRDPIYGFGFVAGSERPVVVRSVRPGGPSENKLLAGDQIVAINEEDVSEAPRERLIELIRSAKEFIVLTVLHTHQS
Chain of DLG1_2, Q12959 (Q12959 314-412): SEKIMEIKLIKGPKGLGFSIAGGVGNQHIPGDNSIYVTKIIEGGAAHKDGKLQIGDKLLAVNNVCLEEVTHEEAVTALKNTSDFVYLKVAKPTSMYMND
Chain of MAGI2_2, Q86UL8 (Q86UL8 410-522): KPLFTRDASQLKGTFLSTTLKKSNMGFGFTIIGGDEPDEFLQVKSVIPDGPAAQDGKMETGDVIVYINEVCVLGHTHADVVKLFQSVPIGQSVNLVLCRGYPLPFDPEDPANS
Chain of DLG5_1, Q8TDM6 (Q8TDM6 617-713): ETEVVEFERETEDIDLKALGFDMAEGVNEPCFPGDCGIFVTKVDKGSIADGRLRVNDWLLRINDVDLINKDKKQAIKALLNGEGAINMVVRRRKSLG

B1: OR8G1, Q15617 (peptide)
chain: KKMLQRRTLL
3.66: RADIL, Q96JH8; [1]
below the threshold: CASK, O14936; [1] | DFNB31_1, Q9P202; [1] | DFNB31_2, Q9P202; [1] | DLG5_1, Q8TDM6; [1] | FRMPD2_1, Q68DX3; [1] | FRMPD3, Q5JV73; [1] | GIPC2, Q8TF65; [1] | GRIP1_3, Q9Y3R0; [1] | GRIP2_7, Q9C0E4; [1] | Inadl_5, Q8NI35; [1] | LIN7C, Q9NUP9; [1] | LNX2_3, Q8N448; [1] | MAGI2_4, Q86UL8; [1] | MPP2, Q14168; [1] | SIPA1L2, Q9P2F8; [1] | SNTG2, Q9NY99; [1] | TJP1_2, Q07157; [1] | TJP3_3, O95049; [1]
4.41: MAST1, Q9Y2H9; [1]
4.85: MAGI1_2, Q96QZ7; [1]
4.47: PARD3B_1, Q8TEW8; [1]
4.44: MAGI2_2, Q86UL8; [1]
4.09: DLG1_2, Q12959; [1]
3.89: ARHGEF11, O15085; [1]
4.32: TJP2_1, Q9UDY2; [1]

B2: ACE2, Q9BYF1 (peptide)
chain: QNTDDVQTSF
3.82: PARD3B_1, Q8TEW8; [2]
3.78: FRMPD3, Q5JV73; [2]
4.6: MAST1, Q9Y2H9; [2]
3.47: DFNB31_1, Q9P202; [2]
below the threshold: ARHGEF11, O15085; [2] | CASK, O14936; [2] | DFNB31_2, Q9P202; [2] | DLG5_1, Q8TDM6; [2] | FRMPD2_1, Q68DX3; [2] | GIPC2, Q8TF65; [2] | GRIP1_3, Q9Y3R0; [2] | GRIP2_7, Q9C0E4; [2] | Inadl_5, Q8NI35; [2] | LIN7C, Q9NUP9; [2] | LNX2_3, Q8N448; [2] | MAGI1_2, Q96QZ7; [2] | MAGI2_2, Q86UL8; [2] | MAGI2_4, Q86UL8; [2] | MPP2, Q14168; [2] | RADIL, Q96JH8; [2] | SIPA1L2, Q9P2F8; [2] | SNTG2, Q9NY99; [2] | TJP1_2, Q07157; [2] | TJP2_1, Q9UDY2; [2] | TJP3_3, O95049; [2]
3.54: DLG1_2, Q12959; [2]

B3: MYOT, Q9UBF9 (peptide)
chain: QSGLYESEEL
below the threshold: CASK, O14936; [1] | DFNB31_1, Q9P202; [1] | DFNB31_2, Q9P202; [1] | DLG1_2, Q12959; [1] | DLG5_1, Q8TDM6; [1] | FRMPD2_1, Q68DX3; [1] | FRMPD3, Q5JV73; [1] | GIPC2, Q8TF65; [1] | GRIP1_3, Q9Y3R0; [1] | GRIP2_7, Q9C0E4; [1] | Inadl_5, Q8NI35; [1] | LNX2_3, Q8N448; [1] | MAGI1_2, Q96QZ7; [1] | MAGI2_4, Q86UL8; [1] | MAST1, Q9Y2H9; [1] | MPP2, Q14168; [1] | RADIL, Q96JH8; [1] | SIPA1L2, Q9P2F8; [1] | SNTG2, Q9NY99; [1] | TJP1_2, Q07157; [1] | TJP2_1, Q9UDY2; [1] | TJP3_3, O95049; [1]
3.86: PARD3B_1, Q8TEW8; [1]
3.58: LIN7C, Q9NUP9; [1]
4.38: ARHGEF11, O15085; [1]
4.08: MAGI2_2, Q86UL8; [1]

B4: PTTG2, Q9NZH5 (peptide)
chain: LPAVCYDIDI
4.01: LIN7C, Q9NUP9; [1]
4.08: GIPC2, Q8TF65; [1] | MAST1, Q9Y2H9; [1]
3.67: MAGI2_4, Q86UL8; [1]
4.32: TJP1_2, Q07157; [1]
below the threshold: ARHGEF11, O15085; [1] | CASK, O14936; [1] | DFNB31_1, Q9P202; [1] | DFNB31_2, Q9P202; [1] | DLG1_2, Q12959; [1] | DLG5_1, Q8TDM6; [1] | FRMPD2_1, Q68DX3; [1] | FRMPD3, Q5JV73; [1] | GRIP1_3, Q9Y3R0; [1] | GRIP2_7, Q9C0E4; [1] | Inadl_5, Q8NI35; [1] | LNX2_3, Q8N448; [1] | MAGI1_2, Q96QZ7; [1] | MAGI2_2, Q86UL8; [1] | MPP2, Q14168; [1] | PARD3B_1, Q8TEW8; [1] | RADIL, Q96JH8; [1] | SIPA1L2, Q9P2F8; [1] | SNTG2, Q9NY99; [1] | TJP2_1, Q9UDY2; [1] | TJP3_3, O95049; [1]

B5: MKNK1, Q9BUB5 (peptide)
chain: GEDRSPPTAL
3.7: SNTG2, Q9NY99; [1]
3.63: PARD3B_1, Q8TEW8; [1]
4.01: ARHGEF11, O15085; [1]
4.02: LIN7C, Q9NUP9; [1]
below the threshold: CASK, O14936; [1] | DFNB31_1, Q9P202; [1] | DFNB31_2, Q9P202; [1] | DLG1_2, Q12959; [1] | DLG5_1, Q8TDM6; [1] | FRMPD2_1, Q68DX3; [1] | FRMPD3, Q5JV73; [1] | GIPC2, Q8TF65; [1] | GRIP1_3, Q9Y3R0; [1] | GRIP2_7, Q9C0E4; [1] | Inadl_5, Q8NI35; [1] | LNX2_3, Q8N448; [1] | MAGI1_2, Q96QZ7; [1] | MAGI2_2, Q86UL8; [1] | MAGI2_4, Q86UL8; [1] | MPP2, Q14168; [1] | RADIL, Q96JH8; [1] | SIPA1L2, Q9P2F8; [1] | TJP1_2, Q07157; [1] | TJP2_1, Q9UDY2; [1] | TJP3_3, O95049; [1]
4.1: MAST1, Q9Y2H9; [1]
